Legend:
[1] = target: separate RPA2 WH-domain (pTYB12-WH), recombinant; assay: MST; 100 nM target labelled on cysteines (RED-…), concentration gradient of unlabelled ligand; Monolith NT.115, premium coated capillaries, 40% MST power; 50 mM Tris-HCl pH 7.5, 100 mM NaCl, 1 mM DTT, 0.05% Tween-20, 0.5 mg/ml BSA; KD from at least three runs
[2] = target: mouse UNG2 wild type, recombinant (mUNG2-pET28a) (mouse) (UniProt P97931); assay: as above

Kd [1] [nM]	Kd [2] [nM]	Substance
860		mouse UNG2 wild type, recombinant (mUNG2-pET28a) (from UniProt P97931-1 1-306) (domain or fragment)
	1260	separate RPA2 WH-domain (pTYB12-WH), recombinant

Reference: publication PMC10810282
